The record followed here is PMC3750179.

Assay [1] concerns the target HA-GABAB2 (UniProt O88871).
Assay [2] has as its target Myc-GABAB1 (UniProt Q9Z0U4). Put plainly: co-IP; cell surface immunoprecipitation: intact COS-1 cells incubated with mouse anti-Myc on ice for 3 h, then PBS or 100 μM baclofen for 15 min, lysed, protein G-agarose, Western blot; cells also expressed HA-GABAB2. On the technique in general: Immunoblotting shows a protein as a band on a membrane.
Assay [3] addresses HA-GABAB1-YFP (UniProt Q9Z0U4). Put plainly: FRET or BRET; BRET donor saturation curves in intact COS-1 cells: fixed Rluc fusion (donor) and fixed GABAB2, increasing GABAB1-YFP (acceptor); coelenterazine h 5 μM; PBS or 100 μM baclofen for 15 min; fit with a single binding site.

Sequence of UniProt O88871 (O88871 41-940): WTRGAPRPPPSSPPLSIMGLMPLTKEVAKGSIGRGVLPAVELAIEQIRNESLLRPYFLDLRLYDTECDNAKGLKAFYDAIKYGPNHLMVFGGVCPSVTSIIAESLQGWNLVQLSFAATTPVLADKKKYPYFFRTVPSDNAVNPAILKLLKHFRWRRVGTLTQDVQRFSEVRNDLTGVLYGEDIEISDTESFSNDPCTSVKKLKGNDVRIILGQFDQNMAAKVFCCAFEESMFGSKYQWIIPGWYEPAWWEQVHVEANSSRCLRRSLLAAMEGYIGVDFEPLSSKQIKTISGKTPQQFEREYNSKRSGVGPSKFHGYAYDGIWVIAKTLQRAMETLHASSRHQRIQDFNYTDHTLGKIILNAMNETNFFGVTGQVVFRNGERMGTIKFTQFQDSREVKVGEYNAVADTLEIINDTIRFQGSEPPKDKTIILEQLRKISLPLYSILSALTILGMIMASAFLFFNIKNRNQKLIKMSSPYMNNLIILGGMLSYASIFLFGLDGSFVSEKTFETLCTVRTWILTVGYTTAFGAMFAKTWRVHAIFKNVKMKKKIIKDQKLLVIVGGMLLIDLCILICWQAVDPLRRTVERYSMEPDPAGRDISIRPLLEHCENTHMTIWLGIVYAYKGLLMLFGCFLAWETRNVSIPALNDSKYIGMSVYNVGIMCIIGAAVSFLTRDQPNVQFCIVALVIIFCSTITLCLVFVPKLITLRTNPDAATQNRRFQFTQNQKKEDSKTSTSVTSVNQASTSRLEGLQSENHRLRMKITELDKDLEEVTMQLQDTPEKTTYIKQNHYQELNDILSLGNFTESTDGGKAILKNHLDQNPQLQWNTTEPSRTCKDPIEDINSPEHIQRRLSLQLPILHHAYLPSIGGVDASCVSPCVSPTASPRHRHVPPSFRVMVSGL

Substance “Myc-GABAB1 (from UniProt Q9Z0U4 20-960) (receptor)” came in with an Endo H-resistant fraction of GABAB1 protein in COS-1 cells co-expressing GABAB1 and GABAB2 (all GABAB1 Endo H-sensitive without GABAB2) in assay [1] of 44.5%.

Turning to “FLAG-KCTD12 (from UniProt Q6WVG3 1-327) (natural protein)”, in assay [2], the ratio of KCTD12:GABAB1 band intensity on Western blots (PBS) amounted to 0.84 and the ratio of KCTD12:GABAB1 band intensity on Western blots (baclofen) came out at 0.91. In the case of “Rluc-KCTD12 (from UniProt Q6WVG3 1-327) (natural protein)”, the BRET50 in assay [3] is 0.026.
